Reference: the supplement of paper PMC10724198
± gives the standard deviation of the averaged measurements.

Key:
Saccharomyces cerevisiae [1] = assay: protein stability index of tFT-peptide fusion (C-terminal peptide) (PSI (0-1 scale)); higher = more stable (slower turnover)
Protocol: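 MPS profiling in S. cerevisiae of the tFT-X12 degron library: putative degron peptides plus stable controls, 12 aa, fused to the C-terminus of a sfGFP-mCherry timer. Cells are FACS-sorted into 8 mCherry/sfGFP bins and deep-sequenced. PSI runs from 0 (unstable) to 1 (stable). Backgrounds are wild type, das1Δ and doa10Δ at 30 °C, and wild type, das1Δ, cdc34-1 and cdc53-1 at 37 °C; 2-3 technical replicates each.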

Saccharomyces cerevisiae [2] = assay: as above; settings: genetic background: wild type; temperature: 30 C
[3] = genetic background: cdc34-1, temperature: 37 C
[4] = genetic background: cdc53-1, temperature: 37 C
[5] = genetic background: das1 deletion, temperature: 30 C
[6] = genetic background: das1 deletion, temperature: 37 C
[7] = genetic background: doa10 deletion, temperature: 30 C
[8] = genetic background: wild type, temperature: 30 C
[9] = genetic background: wild type, temperature: 37 C
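Further: PSI is a weighted mean of sequencing reads over stability bins, variants kept only with over 10 reads, mCherry proximal and sfGFP distal, peptide attached via GGGS linker.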

Sequence | protein stability index (Saccharomyces cerevisiae [1]; [3]) | protein stability index (Saccharomyces cerevisiae [1]; [4]) | protein stability index (Saccharomyces cerevisiae [1]; [5]) | protein stability index (Saccharomyces cerevisiae [1]; [6]) | protein stability index (Saccharomyces cerevisiae [1]; [7]) | protein stability index (Saccharomyces cerevisiae [1]; [8]) | protein stability index (Saccharomyces cerevisiae [1]; [9]) | protein stability index (Saccharomyces cerevisiae [2])
FIRLFLVSFFIS | 0.405 ± 0.048 | 0.451 ± 0.027 | 0.375 ± 0.019 | 0.567 ± 0.032 | 0.174 ± 0.013 | 0.189 ± 0.022 | 0.298 ± 0.0093 | 0.31 ± 0.089
FLACYSSFLFVS | 0.417 ± 0.034 | 0.576 ± 0.011 | 0.4917 ± 0.0018 | 0.587 ± 0.0092 | 0.0703 ± 0.024 | 0.0895 ± 0.022 | 0.136 ± 0.0035 | 0.149 ± 0.03
FLCFFGGCFFLV | 0.581 ± 0.032 | 0.646 ± 0.06 | 0.523 ± 0.029 | 0.6462 ± 0.0016 | 0.4162 ± 0.0038 | 0.401 ± 0.025 | 0.5617 ± 0.0015 | 0.468 ± 0.0077
FLCLLFYLSFFS | 0.55 ± 0.018 | 0.5422 ± 4.9e-05 | 0.404 ± 0.028 | 0.572 ± 0.0078 | 0.378 ± 0.021 | 0.391 ± 0.021 | 0.5482 ± 0.0007 | 0.415 ± 0.029
FLFWVLLVGCSF | 0.244 ± 0.0058 | 0.299 ± 0.012 | 0.245 ± 0.035 | 0.3748 ± 0.0029 | 0.206 ± 0.015 | 0.206 ± 0.021 | 0.334 ± 0.013 | 0.304 ± 0.028
FLGVFFYFLLCV | 0.235 ± 0.02 | 0.2583 ± 0.002 | 0.254 ± 0.026 | 0.35871 ± 0.00032 | 0.2529 ± 0.0012 | 0.239 ± 0.013 | 0.326 ± 0.0064 | 0.379 ± 0.03
FLLAIVRGVWLA | 0.15 ± 0.029 | 0.115 ± 0.0084 | 0.257 ± 0.034 | 0.339 ± 0.014 | 0.154 ± 0.01 | 0.104 ± 0.032 | 0.112 ± 0.0028 | 0.176 ± 0.014
FLPHLMCVFSFC | 0.456 ± 0.05 | 0.489 ± 0.01 | 0.394 ± 0.028 | 0.522 ± 0.0054 | 0.3324 ± 0.0015 | 0.334 ± 0.016 | 0.465 ± 0.0064 | 0.382 ± 0.0022
FLVFRPPALFLR | 0.0932 ± 0.018 | 0.0985 ± 0.0088 | 0.198 ± 0.024 | 0.268 ± 0.013 | 0.611 ± 0.01 | 0.22 ± 0.017 | 0.219 ± 0.0054 | 0.218 ± 0.18
FLVVCGLLSWVW | 0.324 ± 0.00073 | 0.407 ± 0.029 | 0.263 ± 0.039 | 0.455 ± 0.015 | 0.232 ± 0.0053 | 0.28 ± 0.032 | 0.4291 ± 0.003 | 0.348 ± 0.05
FLVVSSVGFPLL | 0.676 ± 0.017 | 0.73 ± 0.0085 | 0.626 ± 0.018 | 0.729 ± 0.027 | 0.618 ± 0.011 | 0.628 ± 0.014 | 0.714 ± 0.014 | 0.467 ± 0.027
FLWLCLLSLFFR | 0.454 ± 0.069 | 0.383 ± 0.035 | 0.436 ± 0.018 | 0.548 ± 0.017 | 0.547 ± 0.01 | 0.434 ± 0.0099 | 0.498 ± 0.031 | 0.481 ± 0.018
FLYFLLQFLCSG | 0.517 ± 0.04 | 0.544 ± 0.0046 | 0.418 ± 0.034 | 0.597 ± 0.046 | 0.406 ± 0.0045 | 0.421 ± 0.029 | 0.579 ± 0.034 | 0.516 ± 0.034
FMCFVLPVFVLV | 0.247 ± 0.013 | 0.282 ± 0.034 | 0.222 ± 0.029 | 0.389 ± 0.0074 | 0.196 ± 0.018 | 0.212 ± 0.017 | 0.344 ± 0.014 | 0.306 ± 0.024
FNFFFSSVFLLV | 0.3037 ± 0.0011 | 0.252 ± 0.025 | 0.342 ± 0.048 | 0.436 ± 0.051 | 0.3 ± 0.022 | 0.19 ± 0.02 | 0.334 ± 0.029 | 0.299 ± 0.015
FPFFFLSILSAV | 0.262 ± 0.015 | 0.2944 ± 0.0028 | 0.256 ± 0.037 | 0.383 ± 0.0098 | 0.11 ± 0.0067 | 0.122 ± 0.023 | 0.168 ± 0.0078 | 0.177 ± 0.019
FPFVYRSVLLFF | 0.392 ± 0.052 | 0.484 ± 0.012 | 0.411 ± 0.033 | 0.577 ± 0.011 | 0.1059 ± 0.00044 | 0.0991 ± 0.021 | 0.216 ± 0.029 | 0.177 ± 0.089
FPPRLIPLLARS | 0.442 ± 0.028 | 0.4556 ± 0.00087 | 0.31 ± 0.044 | 0.511 ± 0.0063 | 0.2401 ± 0.0016 | 0.291 ± 0.025 | 0.4713 ± 0.0013 | 0.372 ± 0.02
FPSCYIWEVEVM | 0.403 ± 0.049 | 0.403 ± 0.021 | 0.32 ± 0.039 | 0.484 ± 0.038 | 0.268 ± 0.0021 | 0.333 ± 0.023 | 0.436 ± 0.0047 | 0.442 ± 0.037
FPSLLFALFLFI | 0.481 ± 0.046 | 0.502 ± 0.0056 | 0.436 ± 0.027 | 0.5271 ± 0.00065 | 0.4401 ± 0.0013 | 0.415 ± 0.036 | 0.501 ± 0.018 | 0.475 ± 0.017

Sequence | protein stability index (Saccharomyces cerevisiae [1]; [3]) | protein stability index (Saccharomyces cerevisiae [1]; [4]) | protein stability index (Saccharomyces cerevisiae [1]; [5]) | protein stability index (Saccharomyces cerevisiae [1]; [6]) | protein stability index (Saccharomyces cerevisiae [1]; [7]) | protein stability index (Saccharomyces cerevisiae [1]; [8]) | protein stability index (Saccharomyces cerevisiae [1]; [9]) | protein stability index (Saccharomyces cerevisiae [2])
FPVSSRSFSFIP | 0.66 ± 0.051 | 0.7594 ± 0.0028 | 0.666 ± 0.02 | 0.732 ± 0.019 | 0.627 ± 0.02 | 0.656 ± 0.028 | 0.717 ± 0.053 | 0.727 ± 0.046
FRFYCGLVIANV | 0.455 ± 0.016 | 0.484 ± 0.029 | 0.385 ± 0.019 | 0.51729 ± 0.00021 | 0.359 ± 0.03 | 0.377 ± 0.031 | 0.531 ± 0.039 | 0.483 ± 0.027
FSCLCLCVATSG | 0.348 ± 0.031 | 0.396 ± 0.056 | 0.221 ± 0.019 | 0.379 ± 0.015 | 0.237 ± 0.031 | 0.219 ± 0.023 | 0.355 ± 0.03 | 0.23 ± 0.013
FSFSAFARFLVI | 0.618 ± 0.048 | 0.704 ± 0.02 | 0.604 ± 0.033 | 0.6999 ± 0.0034 | 0.243 ± 0.0081 | 0.255 ± 0.025 | 0.378 ± 0.018 | 0.358 ± 0.036
FSFSCFFFVLFV | 0.0608 ± 0.036 | 0.0424 ± 0.002 | 0.0913 ± 0.018 | 0.11 ± 0.022 | 0.265 ± 0.0023 | 0.0703 ± 0.038 | 0.0898 ± 0.017 | 0.127 ± 0.0048
FSFSFYFALASF | 0.474 ± 0.047 | 0.514 ± 0.0099 | 0.425 ± 0.018 | 0.495 ± 0.011 | 0.41 ± 0.0077 | 0.422 ± 0.0075 | 0.483 ± 0.034 | 0.4603 ± 0.00095
FTFLFPLRLLPL | 0.305 ± 0.051 | 0.295 ± 0.025 | 0.377 ± 0.036 | 0.478 ± 0.015 | 0.586 ± 0.033 | 0.374 ± 0.009 | 0.442 ± 0.011 | 0.3469 ± 0.00084
FVFCGVVFLFLL | 0.399 ± 0.033 | 0.467 ± 0.0057 | 0.395 ± 0.058 | 0.519 ± 0.018 | 0.347 ± 0.0093 | 0.326 ± 0.018 | 0.462 ± 0.0044 | 0.351 ± 0.086
FVFIFIRVFFFR | 0.174 ± 0.0037 | 0.207 ± 0.024 | 0.189 ± 0.044 | 0.308 ± 0.017 | 0.171 ± 0.0012 | 0.176 ± 0.011 | 0.2451 ± 0.0022 | 0.269 ± 0.011
FVFLVLGPYAMF | 0.444 ± 0.032 | 0.512 ± 0.013 | 0.354 ± 0.028 | 0.609 ± 0.048 | 0.346 ± 0.013 | 0.341 ± 0.01 | 0.556 ± 0.019 | 0.415 ± 0.0026
FVGVLVLCVCRC | 0.0544 ± 0.0064 | 0.137 ± 0.015 | 0.17 ± 0.029 | 0.247 ± 0.021 | 0.116 ± 0.025 | 0.155 ± 0.025 | 0.21 ± 0.014 | 0.278 ± 0.024
FVLFCWFFCIVW | 0.293 ± 0.019 | 0.326 ± 0.029 | 0.263 ± 0.011 | 0.3625 ± 0.00095 | 0.286 ± 0.032 | 0.226 ± 0.033 | 0.342 ± 0.012 | 0.273 ± 0.043
FVSFFRWLLVSI | 0.267 ± 0.016 | 0.201 ± 0.04 | 0.358 ± 0.039 | 0.4432 ± 0.0011 | 0.211 ± 0.017 | 0.163 ± 0.015 | 0.218 ± 0.0089 | 0.152 ± 0.028
FYAAILCLLFSC | 0.478 ± 0.037 | 0.512 ± 0.014 | 0.45 ± 0.035 | 0.546 ± 0.013 | 0.22913 ± 0.00013 | 0.265 ± 0.021 | 0.385 ± 0.0066 | 0.341 ± 0.012
GCDVWCLVLRMG | 0.651 ± 0.016 | 0.68429 ± 0.00024 | 0.517 ± 0.0083 | 0.676 ± 0.031 | 0.418 ± 0.013 | 0.435 ± 0.019 | 0.63 ± 0.025 | 0.47 ± 0.018
GCFVDRVYVVVV | 0.52605 ± 0.00036 | 0.543 ± 0.043 | 0.381 ± 0.026 | 0.546 ± 0.016 | 0.366 ± 0.014 | 0.387 ± 0.022 | 0.522 ± 0.0064 | 0.4763 ± 0.00091
GCLFASWPLAVC | 0.104 ± 0.026 | 0.109 ± 0.0041 | 0.214 ± 0.022 | 0.2564 ± 0.0019 | 0.166 ± 0.008 | 0.198 ± 0.016 | 0.209 ± 0.0077 | 0.303 ± 0.043
GCSVSLCCVFVV | 0.489 ± 0.016 | 0.503 ± 0.021 | 0.36 ± 0.028 | 0.525 ± 0.01 | 0.2589 ± 0.0012 | 0.282 ± 0.025 | 0.433 ± 0.0093 | 0.372 ± 0.022
GCVGLSFCVWVG | 0.382 ± 0.011 | 0.502 ± 0.02 | 0.323 ± 0.031 | 0.523 ± 0.026 | 0.175 ± 0.015 | 0.211 ± 0.018 | 0.3965 ± 0.0014 | 0.314 ± 0.023
